The values that follow come from PMC4382335.

The target in experiment [1] is TcCYS4-His-tag, recombinant cystatin TcCYS4 from Theobroma cacao (Theobroma cacao). Description: SEC; as a2, samples treated in the range from 55 to 75°C for 10 min; 20 uM, 100 mM phosphate buffer pH 6, 150 mM NaCl, Superdex 75 5/150. For orientation: SEC sorts molecules by how far they enter the pores of the column.
For experiment [2] the target is unchanged. Nature of the experiment: SEC; TcCYS4 at 20 uM in 100 mM phosphate buffer pH 6, 150 mM NaCl, treated at different temperatures for 10 min (all heat treatments), Superdex 75 5/150, LMW standards.
The target of experiment [3] is papain from papaia latex (papaia (from papaia latex)) (UniProt P00784).
Sequence of UniProt P00784 (P00784 134-345): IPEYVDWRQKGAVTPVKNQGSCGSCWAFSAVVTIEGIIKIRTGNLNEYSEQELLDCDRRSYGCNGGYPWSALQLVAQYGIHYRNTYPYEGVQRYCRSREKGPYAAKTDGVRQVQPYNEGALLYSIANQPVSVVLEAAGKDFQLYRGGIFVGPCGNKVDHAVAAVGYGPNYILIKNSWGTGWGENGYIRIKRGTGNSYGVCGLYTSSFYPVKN
For experiment [4] the target is unchanged. This is another data set of the same source.
Experiment [5] shares this target. This is another data set of the same source.
For experiment [6] the target is unchanged. The source holds these as a separate data set.
For experiment [7] the target is unchanged. This is another data set of the same source.

One may read the stoichiometry N as the number of molecules, sites or subunits per partner or assembly. As to “TcCYS4-His-tag, recombinant cystatin TcCYS4 from Theobroma cacao (natural protein)”, the stoichiometry N in experiment [1] worked out at 3; in experiment [2], 2. Besides, the papain inhibitory activity after treatment of the cystatin for 10 min at different temperatures up to 90°C; 70% of activity at 65°C in experiment [3] was over 100%. Further, in experiment [4], the residual activity of papain with TcCYS4 treated at 65°C for 0 to 600 s (plateau after 300 s) was 60%. Besides, the percentage of inhibition of papain at pH values of the reaction medium from 2 to 10.5 (20% at pH 3, 70% at pH 3.5, about 90% from pH 4 to 9, about 80% at pH 10.5) in experiment [5] came out at 90%.
“recombinant cystatin TcCYS2 from Theobroma cacao (natural protein)”: in experiment [6], the papain inhibitory activity after treatment of the cystatin for 10 min at different temperatures up to 90°C; around 52% at 65°C is 65%.
Take “recombinant cystatin TcCYS3 from Theobroma cacao (natural protein)”: the papain inhibition rate after treatment of the cystatin for 10 min at temperatures up to 90°C in experiment [7] stood at 100%.
